Test [1] concerns the target single chain FcRn-β2m-his (human scFcRn, Acro Biosystems Cat. No. FCM-H5286) (human) (UniProt P55899). The test is described as follows: SPR, antibody on CM5 chip, scFcRn 400-25 nM, pH 5.8 PBS, 1:1 Langmuir. (Surface plasmon resonance follows binding to a sensor surface in real time, without labels.)
Test [2] shares this target. Nature of the test: SPR, antibody on CM5 chip, scFcRn, pH 5.8.
For test [3] the target is unchanged. Nature of the test: SPR, antibody on CM5 chip, scFcRn 400-25 nM, pH 5.8 PBS.

We go through five molecules from US20210347891A1.

Chain of single chain FcRn-β2m-his (human scFcRn, Acro Biosystems Cat. No. FCM-H5286) (human) (P55899 other isoform, or with tags, fused parts or gaps): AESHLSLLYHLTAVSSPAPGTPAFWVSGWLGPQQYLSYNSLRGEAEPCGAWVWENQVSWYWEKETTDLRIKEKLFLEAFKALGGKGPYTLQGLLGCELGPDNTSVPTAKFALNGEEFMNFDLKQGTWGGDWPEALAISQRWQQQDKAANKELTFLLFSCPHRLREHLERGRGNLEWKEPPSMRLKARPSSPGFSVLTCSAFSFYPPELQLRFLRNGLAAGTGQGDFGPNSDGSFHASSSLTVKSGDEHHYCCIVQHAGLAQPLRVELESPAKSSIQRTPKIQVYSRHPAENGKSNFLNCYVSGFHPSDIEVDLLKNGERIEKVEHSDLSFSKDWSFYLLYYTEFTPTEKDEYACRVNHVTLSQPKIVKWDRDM

B1: Herceptin-IgG4-DHS (L309D, Q311H, N434S) (antibody, part only; not given: trastuzumab Fab, not shown: another chain or arm of the molecule)
Fc: ESKYGPPCPSCPAPEFLGGPSVFLFPPKPKDTLMISRTPEVTCVVVDVSQEDPEVQFNWYVDGVEVHNAKTKPREEQFNSTYRVVSVLTVDHHDWLNGKEYKCKVSNKGLPSSIEKTISKAKGQPREPQVYTLPPSQEEMTKNQVSLTCLVKGFYPSDIAVEWESNGQPENNYKTTPPVLDSDGSFFLYSRLTVDKSRWQEGNVFSCSVMHEALHSHYTQKSLSLSLGK
modifications: Glycosylated Fc homodimer (HEK293F); one chain is given.
Usually Kd stands for the free concentration of one partner at which half of the binding sites on the other are occupied at equilibrium, for simple one-to-one binding. The low end stands for tighter binding, the high end for weaker binding. What is called koff is a measure of how fast the partners let go of each other. For orientation: kon means the second-order rate constant of association. With B1, in test [1], the Kd came to 832 nM, the koff amounted to 0.151 s⁻¹ and the kon is 281000 M⁻¹ s⁻¹. The fold enhanced KD comparing with wild type IgG4 in test [2] is 3 fold.

B2: Herceptin-IgG2 (wild type IgG2 with the Fab of trastuzumab) (antibody, part only; not given: Fab (trastuzumab), not shown: another chain or arm of the molecule)
Fc: ERKCCVECPPCPAPPVAGPSVFLFPPKPKDTLMISRTPEVTCVVVDVSHEDPEVQFNWYVDGVEVHNAKTKPREEQFNSTFRVVSVLTVVHQDWLNGKEYKCKVSNKGLPAPIEKTISKTKGQPREPQVYTLPPSREEMTKNQVSLTCLVKGFYPSDISVEWESNGQPENNYKTTPPMLDSDGSFFLYSKLTVDKSRWQQGNVFSCSVMHEALHNHYTQKSLSLSPGK
modifications: Glycosylated at N297 (HEK293F expression). The Fc is a disulfide-linked homodimer in the full IgG.
In turn, B2 came in with a Kd in test [3] of 2140 nM.

B3: Herceptin-IgG2-DHS (V309D, Q311H, N434S) (antibody, part only; not given: trastuzumab Fab, not shown: another chain or arm of the molecule)
Fc: ERKCCVECPPCPAPPVAGPSVFLFPPKPKDTLMISRTPEVTCVVVDVSHEDPEVQFNWYVDGVEVHNAKTKPREEQFNSTFRVVSVLTVDHHDWLNGKEYKCKVSNKGLPAPIEKTISKTKGQPREPQVYTLPPSREEMTKNQVSLTCLVKGFYPSDISVEWESNGQPENNYKTTPPMLDSDGSFFLYSKLTVDKSRWQQGNVFSCSVMHEALHSHYTQKSLSLSPGK
modifications: Glycosylated at N297 (HEK293F expression). The Fc is a disulfide-linked homodimer in the full IgG.
As to B3, in test [1], the Kd was determined as 377 nM, the koff was determined as 0.086 s⁻¹ and the on-rate constant (kon) was found to be 227000 M⁻¹ s⁻¹. Also, the fold enhanced KD comparing with wild type IgG2 in test [2] worked out at 5.7 fold.

B4: Herceptin-IgG3 (wild type IgG3 with the Fab of trastuzumab) (antibody, part only; not given: trastuzumab Fab; H435 or R435 unclear, not shown: another chain or arm of the molecule)
Fc: ELKTPLGDTTHTCPRCPEPKSCDTPPPCPRCPEPKSCDTPPPCPRCPEPKSCDTPPPCPRCPAPELLGGPSVFLFPPKPKDTLMISRTPEVTCVVVDVSHEDPEVQFKWYVDGVEVHNAKTKPREEQYNSTFRVVSVLTVLHQDWLNGKEYKCKVSNKALPAPIEKTISKTKGQPREPQVYTLPPSREEMTKNQVSLTCLVKGFYPSDIAVEWESSGQPENNYNTTPPMLDSDGSFFLYSKLTVDKSRWQQGNIFSCSVMHEALHNHFTQKSLSLSPGK
modifications: Glycosylated Fc homodimer (HEK293F); one chain is given.
In test [3], B4 gave a Kd of 4080 nM.

B5: Herceptin-IgG3-DHS (L309D, Q311H, N434S) (antibody, part only; not given: trastuzumab Fab, not shown: another chain or arm of the molecule)
Fc: ELKTPLGDTTHTCPRCPEPKSCDTPPPCPRCPEPKSCDTPPPCPRCPEPKSCDTPPPCPRCPAPELLGGPSVFLFPPKPKDTLMISRTPEVTCVVVDVSHEDPEVQFKWYVDGVEVHNAKTKPREEQYNSTFRVVSVLTVDHHDWLNGKEYKCKVSNKALPAPIEKTISKTKGQPREPQVYTLPPSREEMTKNQVSLTCLVKGFYPSDIAVEWESSGQPENNYNTTPPMLDSDGSFFLYSKLTVDKSRWQQGNIFSCSVMHEALHSHFTQKSLSLSPGK
modifications: Glycosylated Fc homodimer (HEK293F); one chain is given.
Take B5: in test [1], the Kd was found to be 739 nM, the koff was 0.126 s⁻¹ and the kon was 170000 M⁻¹ s⁻¹. Moreover, in test [2], the fold enhanced KD comparing with wild type IgG3 came to 5.5 fold.
